Experiments:
D16G TCL1 = D16G TCL1 (UniProt P56279)
[1] = system: T1, 10/24 peptide (amino acid residue 10-24 of human TCL1, NH2-AVTDHPDRLWAWEKF-COOH)
T1 sequence: AVTDHPDRLWAWEKF

[2] = system: T2, peptide having repetitive sequence of 11-23 from 10-24 (NH2-VTDHPDRLWAWEK-RRR-VTDHPDRLWAWEK-COOH)
T2 sequence: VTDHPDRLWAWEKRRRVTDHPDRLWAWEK

Chain of D16G TCL1 (P56279 whole entry D16G): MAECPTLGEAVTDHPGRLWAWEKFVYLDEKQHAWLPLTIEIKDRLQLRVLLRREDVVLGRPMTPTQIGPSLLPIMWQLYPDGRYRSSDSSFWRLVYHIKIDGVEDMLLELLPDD

Row | Substance | Akt kinase activity in an in vitro kinase assay (GSK-3a phosphorylation, Akt Ser-473 phosphorylation) (D16G TCL1) | In vitro Akt kinase assay, GSK phosphorylation by western blotting, peptide at 200 µM [1] | In vitro Akt kinase assay, GSK phosphorylation [2]
1 | Akt (in vitro kinase assay of Example 1) | D16G TCL1 did not affect the Akt kinase activity even though in a dose escalation experiment | – | –
2 | Recombinant Akt protein extracted from mammalian cells | – | the 10/24 peptide was effectively inhibited the phosphorylation potency for GSK peptide of Akt | The similar inhibition effect on Akt kinase activity was also identified
